In PMC10051649, “Suramin Disturbs the Association of the N-Terminal Domain of SARS-CoV-2 Nucleocapsid Protein with RNA”:

Molecular target: SARS-CoV-2 nucleocapsid N-terminal domain (N-NTD) (SARS-CoV-2, UniProt P0DTC9 44-180)
Assay: BLI
Settings: protein: recombinant; tags: 6xHis-SUMO removed by SUMO protease; biotinylated for BLI; 15N-labeled for NMR; single strand

AUAUGGAAGAGCCCUA (ssRNA) [ssRNA-16]
Kd: 8.37 µM
